Source: patent US20100159482A1 (LIFE TECHNOLOGIES, published 2010)
Blank lines part the entries; values can stand above or below the molecule they belong to. The star is where a group is joined. MeOSuc = COC(=O)CCC(=O)*; CH2Cl = ClC*

Columns and labels:
proteinase K [1] = molecular target: T1, proteinase K (UniProt P06873 106-384); experiment: computed, not measured: CDOCKER docking on PDB 3PRK, MM-PBSA rescoring, average of three poses
Method: Based on the studies cited in the previous examples, a study was carried out to examine the change in total binding free energy of peptide inhibitor to proteinase K to form the peptide-inhibitor complex. The molecular docking of inhibitors MeOSuc-AAPV-CH₂Cl (SEQ ID NO:2), MeOSuc-AAPL-CH₂Cl (SEQ ID NO:10), MeOSuc-AAAPV-CH₂Cl (SEQ ID NO:8), MeOSuc-AAAPL-CH₂Cl (SEQ ID NO:7), MeOSuc-AAAPF-CH₂Cl (SEQ ID NO:9), MeOSuc-AAPA-CH₂Cl (SEQ ID NO:1), and MeOSuc-AAPF-CH₂Cl (SEQ ID NO:5) into the binding site of Proteinase K was performed using CDOCKER of Discovery Studio V2.01 (1. (Accelrys Software Inc., Discovery Studio Modeling Environment, Release 2.01, San Diego: Accelrys Software Inc., 2008., trial version) which uses a CHARMm based Molecular Dynamics docking algorithm. The crystal structure of the protein complex covalently formed between proteinase K and MeOSuc-AAPA-CH₂Cl (SEQ ID NO:1) was used as a starting structure for molecular simulation (PDB CODE: 3PRK; Wolf W M et al. J. Biol. Chem. 1991, 266, 17695). Water molecules were removed from the protein complex, protonated at pH 8.0 and the structure was energy minimized using CHARMm force field with a convergence threshold of 0.05 kcal/mol A. Then, the inhibitor part was removed from the protein complex and was used to build the structures of MeOSuc-AAPV-CH₂Cl (SEQ ID NO:2) (see FIG. 8A), MeOSuc-AAPL-CH₂Cl (SEQ ID NO:10) (see FIG. 9A), MeOSuc-AAAPV-CH₂Cl (SEQ ID NO:8) (see FIG. 8B), MeOSuc-AAAPL-CH₂Cl (SEQ ID NO:7) (see FIG. 9B), MeOSuc-AAAPF-CH₂Cl (SEQ ID NO:9) (see FIG. 11B), MeOSuc-AAPA-CH₂Cl (SEQ ID NO:1) (see FIG. 10), and MeOSuc-AAPF-CH₂Cl (SEQ ID NO:5) (see FIG. 11A). A site sphere with a radius of 13A was created at center of the active site of inhibitor-free proteinase K.
The CDOCKER algorithm can generate several different orientations for each inhibitor in the active site of proteinase K within the site sphere and perform MD-based simulated annealing followed by final minimization. […] The MD simulation for each orientation consisted of 1000 steps at 2 fs per step and at 1000 K. No inherent restrictions were placed on the conformers of inhibitors.

proteinase K [2] = molecular target: T1, proteinase K; experiment: cell-based or functional assay

T1 sequence (P06873 106-384 limits assumed): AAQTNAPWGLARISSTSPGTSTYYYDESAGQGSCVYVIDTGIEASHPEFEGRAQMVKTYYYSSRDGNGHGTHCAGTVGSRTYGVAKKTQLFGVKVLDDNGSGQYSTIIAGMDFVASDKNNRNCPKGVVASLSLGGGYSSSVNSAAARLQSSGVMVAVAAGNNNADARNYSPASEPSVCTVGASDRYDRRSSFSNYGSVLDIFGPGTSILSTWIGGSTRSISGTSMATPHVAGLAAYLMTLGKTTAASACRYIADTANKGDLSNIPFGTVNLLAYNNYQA

ΔΔGBind (total binding free energy, calculated) (proteinase K [1]): -14.6 kcal/mol
Molecule: methoxysuccinyl-AlaAlaProAla-chloromethyl ketone (peptide)

lowest inhibitory concentration in the stopped mixture, indirect linked RT-qPCR assay (proteinase K [2]): ~0.5 mM
B1: MeOSuc-AlaProAlaLeu-CH2Cl (peptide)
peptide: APAL
HELM: PEPTIDE1{[COC(=O)CCC(=O)[*:2]].A.P.A.L.[ClC[*:1]]}$$$$V2.0
SMILES: COC(=O)CCC(=O)N[C@@H](C)C(=O)N1CCC[C@H]1C(=O)N[C@@H](C)C(=O)N[C@@H](CC(C)C)C(=O)CCl

ΔΔGBind (total binding free energy, calculated) (proteinase K [1]): -2.55 kcal/mol
lowest inhibitory concentration in the stopped mixture, indirect linked RT-qPCR assay (proteinase K [2]): ~0.05 mM
B5: MeOSuc-AlaAlaProPhe-CH2Cl (peptide)
peptide: AAPF
HELM: PEPTIDE1{[COC(=O)CCC(=O)[*:2]].A.A.P.F.[ClC[*:1]]}$$$$V2.0
SMILES: COC(=O)CCC(=O)N[C@@H](C)C(=O)N[C@@H](C)C(=O)N1CCC[C@H]1C(=O)N[C@@H](Cc1ccccc1)C(=O)CCl
notes: also called MeOSuc-AAPF-CH2Cl; MSFCK

The remaining lines, values behind:

B2: MeOSuc-AlaAlaAlaProPhe-CH2Cl (peptide)
peptide: AAAPF
HELM: PEPTIDE1{[COC(=O)CCC(=O)[*:2]].A.A.A.P.F.[ClC[*:1]]}$$$$V2.0
SMILES: COC(=O)CCC(=O)N[C@@H](C)C(=O)N[C@@H](C)C(=O)N[C@@H](C)C(=O)N1CCC[C@H]1C(=O)N[C@@H](Cc1ccccc1)C(=O)CCl
ΔΔGBind (total binding free energy, calculated) (proteinase K [1]): 9.95 kcal/mol
effective inhibitory concentration, beta-actin RT-qPCR from HeLa cell lysates (proteinase K [2]): 0.1 mM

B3: MeOSuc-AlaAlaAlaProVal-CH2Cl (peptide)
peptide: AAAPV
HELM: PEPTIDE1{[COC(=O)CCC(=O)[*:2]].A.A.A.P.V.[ClC[*:1]]}$$$$V2.0
SMILES: COC(=O)CCC(=O)N[C@@H](C)C(=O)N[C@@H](C)C(=O)N[C@@H](C)C(=O)N1CCC[C@H]1C(=O)N[C@H](C(=O)CCl)C(C)C
ΔΔGBind (total binding free energy, calculated) (proteinase K [1]): 1.32 kcal/mol
effective inhibitory concentration, beta-actin RT-qPCR from HeLa cell lysates (proteinase K [2]): 0.5 mM

Molecule: MeOSuc-AAPV-CH2Cl (also called MeOSuc-AAPV-CH2Cl; MSVCK) [methoxysuccinyl-AlaAlaProVal-chloromethyl ketone]
ΔΔGBind (total binding free energy, calculated) (proteinase K [1]): -6.63 kcal/mol
effective inhibitory concentration, beta-actin RT-qPCR from HeLa cell lysates (proteinase K [2]): 0.5 mM
lowest inhibitory concentration in the stopped mixture, indirect linked RT-qPCR assay (proteinase K [2]): ~0.25 mM

B4: MeOSuc-AlaAlaProLeu-CH2Cl (peptide)
peptide: AAPL
HELM: PEPTIDE1{[COC(=O)CCC(=O)[*:2]].A.A.P.L.[ClC[*:1]]}$$$$V2.0
SMILES: COC(=O)CCC(=O)N[C@@H](C)C(=O)N[C@@H](C)C(=O)N1CCC[C@H]1C(=O)N[C@@H](CC(C)C)C(=O)CCl
notes: also called MeOSuc-AAPL-CH2Cl; methoxysuccinyl-AAPL-chloromethyl ketone
ΔΔGBind (total binding free energy, calculated) (proteinase K [1]): -12.7 kcal/mol
effective inhibitory concentration, beta-actin RT-qPCR from HeLa cell lysates (proteinase K [2]): ~0.1 mM

B6: MeOSuc-AlaAlaAlaProLeu-CH2Cl (peptide)
peptide: AAAPL
HELM: PEPTIDE1{[COC(=O)CCC(=O)[*:2]].A.A.A.P.L.[ClC[*:1]]}$$$$V2.0
SMILES: COC(=O)CCC(=O)N[C@@H](C)C(=O)N[C@@H](C)C(=O)N[C@@H](C)C(=O)N1CCC[C@H]1C(=O)N[C@@H](CC(C)C)C(=O)CCl
notes: also called MeOSuc-AAAPL-CH2Cl; A3PL
ΔΔGBind (total binding free energy, calculated) (proteinase K [1]): -30.9 kcal/mol
effective inhibitory concentration, beta-actin RT-qPCR from HeLa cell lysates (proteinase K [2]): ~0.1 mM
lowest inhibitory concentration in the stopped mixture, indirect linked RT-qPCR assay (proteinase K [2]): ~0.05 mM
